From patent CN106146656A (UNIV BEIJING, dated 2016)
No end group written: not given here.

Biological target: T1, 6×His标签 (组氨酸标签) (also: coupled to ovalbumin carrier, site not given here)
T1 construct: also called 多组氨酸标签; hexa组氨酸标签
T1 peptide: HHHHHH
Assay: indirect phage-ELISA of phage-displayed clones after three rounds of solid-phase panning on 6×His-OVA

B1: 针对His标签的单域重链抗体 (特异性识别组氨酸标签的纳米抗体) (VHH)
VHH: QVQLVESGGGLVQPGQSLRLSCSAPGFTFNNFGLAWFRQAPGKEREEVACIRSHGVRTHYGASVEGRFTISRDSDNKALWLQMNDLKPEDSAVYYCAADPVPANFDTCVHNGYDYWGLGTQVTVSS
notes: also called 抗His标签单域重链抗体
  binding result: binds
